Results published in publication PMC7414962, “Screening and Evaluation of New Hydroxymethylfurfural Oxidases for Furandicarboxylic Acid Production” (Applied and Environmental Microbiology, 2020).

Experiments:
PseniHMFO^His = target: T1, PseniHMFO^His (Pseudomonas nitroreducens, UniProt A0A6G6IPZ6); assay: UV-visible flavin spectrum; FAD release on heat denaturation; assay type: binding; settings: 50 mM Tris-HCl, pH 7.0, 25°C; co-purified prosthetic group
T1 construct: gene G5B91_01695
T1 sequence (A0A6G6IPZ6 1-531): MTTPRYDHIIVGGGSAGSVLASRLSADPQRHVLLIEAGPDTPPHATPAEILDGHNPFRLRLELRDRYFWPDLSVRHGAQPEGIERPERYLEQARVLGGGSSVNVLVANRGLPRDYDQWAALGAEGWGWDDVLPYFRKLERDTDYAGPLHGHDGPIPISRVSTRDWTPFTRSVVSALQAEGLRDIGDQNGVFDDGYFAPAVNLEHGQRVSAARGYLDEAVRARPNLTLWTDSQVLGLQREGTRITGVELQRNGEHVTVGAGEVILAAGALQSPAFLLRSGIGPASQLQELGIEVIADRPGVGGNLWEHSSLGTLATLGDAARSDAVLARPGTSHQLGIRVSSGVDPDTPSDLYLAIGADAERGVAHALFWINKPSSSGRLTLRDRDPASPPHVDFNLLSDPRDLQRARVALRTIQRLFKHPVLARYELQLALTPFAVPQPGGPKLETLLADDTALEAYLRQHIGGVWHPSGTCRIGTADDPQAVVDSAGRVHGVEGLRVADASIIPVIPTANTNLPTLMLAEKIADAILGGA

MetspHMFO = target: T2, MetspHMFO (Methylovorus sp. MP688, UniProt E4QP00); assay: as above; assay type: binding; settings: 50 mM Tris-HCl, pH 7.0, 25°C; co-purified prosthetic group
T2 construct: gene MPQ_0130
T2 sequence (E4QP00 1-531): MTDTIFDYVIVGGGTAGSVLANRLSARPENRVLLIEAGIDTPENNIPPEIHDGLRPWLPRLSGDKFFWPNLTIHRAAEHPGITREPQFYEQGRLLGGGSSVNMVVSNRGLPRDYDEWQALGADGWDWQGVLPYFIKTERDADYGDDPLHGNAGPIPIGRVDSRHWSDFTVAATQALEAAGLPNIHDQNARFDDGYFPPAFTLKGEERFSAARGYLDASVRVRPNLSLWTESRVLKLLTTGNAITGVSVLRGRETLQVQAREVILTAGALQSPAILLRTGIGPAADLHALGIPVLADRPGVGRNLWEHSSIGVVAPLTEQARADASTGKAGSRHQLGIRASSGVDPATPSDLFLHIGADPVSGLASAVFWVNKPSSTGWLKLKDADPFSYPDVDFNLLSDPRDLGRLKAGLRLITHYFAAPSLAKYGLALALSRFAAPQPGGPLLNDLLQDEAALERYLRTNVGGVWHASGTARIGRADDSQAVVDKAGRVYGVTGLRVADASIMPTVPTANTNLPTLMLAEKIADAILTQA

MetspHMFO^His = target: T3, MetspHMFO^His (Methylovorus sp. MP688, UniProt E4QP00); assay: as above; assay type: binding; settings: 50 mM Tris-HCl, pH 7.0, 25°C; co-purified prosthetic group
T3 construct: gene MPQ_0130
T3 sequence (E4QP00 1-531): T2 sequence (E4QP00 1-531)

PsespHMFO = target: T4, PsespHMFO (Pseudomonas sp. 11/12A, UniProt Z9N8I9PR93); assay: as above; assay type: binding; settings: 50 mM Tris-HCl, pH 7.0, 25°C; co-purified prosthetic group
T4 sequence (Z9N8I9PR93 1-530): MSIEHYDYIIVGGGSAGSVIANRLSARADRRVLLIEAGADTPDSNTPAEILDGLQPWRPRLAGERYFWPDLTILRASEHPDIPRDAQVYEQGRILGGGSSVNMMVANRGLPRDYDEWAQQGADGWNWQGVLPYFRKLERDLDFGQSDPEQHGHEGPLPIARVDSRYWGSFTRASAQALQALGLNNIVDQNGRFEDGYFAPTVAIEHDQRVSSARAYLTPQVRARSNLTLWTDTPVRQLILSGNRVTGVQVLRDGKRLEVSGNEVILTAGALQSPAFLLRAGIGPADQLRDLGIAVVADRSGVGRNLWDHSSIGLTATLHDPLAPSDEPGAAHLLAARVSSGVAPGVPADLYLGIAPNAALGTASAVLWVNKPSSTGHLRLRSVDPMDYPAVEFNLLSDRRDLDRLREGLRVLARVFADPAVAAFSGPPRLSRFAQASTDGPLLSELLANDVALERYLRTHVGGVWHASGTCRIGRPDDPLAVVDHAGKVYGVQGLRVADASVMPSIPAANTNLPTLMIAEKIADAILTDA

purified protein = substrate: O=Cc1ccc(CO)o1; assay: purified protein; settings: 50 mM Tris-HCl, pH 7.0, 25°C, O2
[1] = substrate: O=Cc1ccc(C=O)o1; assay: HRP/AmplexRed-coupled H2O2 assay; assay type: biochemical, Methylovorus sp. MP688; settings: 50 mM Tris-HCl, pH 7.0, 25°C, O2
Text: HRP/AmplexRed-coupled H2O2 assay on MetspHMFO

[2] = substrate: COc1cc(CO)ccc1O; assay: steady-state, direct spectrophotometry of vanillin; assay type: biochemical, Methylovorus sp. MP688; settings: 50 mM Tris-HCl, pH 7.0, 25°C, O2
Text: steady-state, direct spectrophotometry of vanillin on MetspHMFO

[3] = substrate: O=Cc1ccc(C=O)o1; assay: HRP/AmplexRed-coupled H2O2 assay; assay type: biochemical, Methylovorus sp. MP688; settings: 50 mM Tris-HCl, pH 7.0, 25°C, O2; remark: listed apart in the source
Text: HRP/AmplexRed-coupled H2O2 assay on MetspHMFO^His

[4] = substrate: COc1cc(CO)ccc1O; assay: steady-state, direct spectrophotometry of vanillin; assay type: biochemical, Methylovorus sp. MP688; settings: 50 mM Tris-HCl, pH 7.0, 25°C, O2; remark: listed apart in the source
Text: steady-state, direct spectrophotometry of vanillin on MetspHMFO^His

[5] = substrate: COc1cc(CO)ccc1O; assay: steady-state, direct spectrophotometry of vanillin; assay type: biochemical, Pseudomonas nitroreducens; settings: 50 mM Tris-HCl, pH 10, 25°C, O2
Text: steady-state, direct spectrophotometry of vanillin on PseniHMFO^His

[6] = substrate: O=Cc1ccc(C=O)o1; assay: HRP/AmplexRed-coupled H2O2 assay; assay type: biochemical, Pseudomonas nitroreducens; settings: 50 mM Tris-HCl, pH 7.0, 25°C, O2
Text: (§1) HRP/AmplexRed-coupled H2O2 assay on PseniHMFO^His

[7] = substrate: O=Cc1ccc(CO)o1; assay: HRP/AmplexRed-coupled H2O2 assay; assay type: biochemical, Pseudomonas nitroreducens; settings: 50 mM Tris-HCl, pH 7.0, 25°C, O2
Text: as §1

Cc1cc2nc3c(=O)[nH]c(=O)nc-3n(C[C@H](O)[C@H](O)[C@H](O)COP(=O)(O)OP(=O)(O)OC[C@H]3O[C@@H](n4cnc5c(N)ncnc54)[C@H](O)[C@@H]3O)c2cc1C [FAD]
UV-visible flavin spectrum; FAD release on heat denaturation (PseniHMFO^His): The enzymes showed UV-visible spectra characteristic of FAD-containing proteins | UV-visible flavin spectrum; FAD release on heat denaturation (MetspHMFO): The enzymes showed UV-visible spectra characteristic of FAD-containing proteins | UV-visible flavin spectrum; FAD release on heat denaturation (MetspHMFO^His): The enzymes showed UV-visible spectra characteristic of FAD-containing proteins | UV-visible flavin spectrum; FAD release on heat denaturation (PsespHMFO): The enzymes showed UV-visible spectra characteristic of FAD-containing proteins

B1: MetspHMFO (Methylovorus sp. MP688) (protein)
chain: T2 sequence (E4QP00 1-531)
Km (purified protein): 9.1 ± 0.7 mM | kcat (purified protein): 1.38 ± 0.0267 s⁻¹ | Km [1]: 6.8 ± 0.6 mM | kcat [1]: 0.102 ± 0.0033 s⁻¹ | Km [2]: 0.5 ± 0.1 mM | kcat [2]: 19.5 ± 1.33 s⁻¹

B2: MetspHMFO^His (Methylovorus sp. MP688) (protein)
chain: T2 sequence (E4QP00 1-531)
Km (purified protein): 6.8 ± 0.8 mM | kcat (purified protein): 1.61 ± 0.0633 s⁻¹ | Km [3]: 4.8 ± 1.9 mM | kcat [3]: 0.0417 ± 0.005 s⁻¹ | Km [4]: 0.6 ± 0.03 mM | kcat [4]: 19.83 ± 0.833 s⁻¹

B3: PseniHMFO^His (Pseudomonas nitroreducens) (protein)
chain: T1 sequence (A0A6G6IPZ6 1-531)
Km [5]: 0.8 ± 0.2 mM | Km [6]: 4.8 ± 1.9 mM | kcat [6]: 0.0167 ± 0.0017 s⁻¹ | Km [7]: 5.1 ± 1.1 mM | kcat [7]: 0.238 ± 0.015 s⁻¹
